Results as given in PMC10215317, “The Rhodanese PspE Converts Thiosulfate to Cellular Sulfane Sulfur in Escherichia coli” (Antioxidants, 2023).

B1: ΔNS-PspE (Escherichia coli K-12) (protein)
chain: AEHWIDVRVPEQYQQEHVQGAINIPLKEVKERIATAVPDKNDTVKVYCNAGRQSGQAKEILSEMGYTHVENAGGLKDIAMPKVKG
notes: Ni-NTA and Superdex 200
B2: GlpE (Escherichia coli K-12) (protein)
chain: MDQFECINVADAHQKLQEKEAVLVDIRDPQSFAMGHAVQAFHLTNDTLGAFMRDNDFDTPVMVMCYHGNSSKGAAQYLLQQGYDVVYSIDGGFEAWQRQFPAEVAYGA
notes: intact gene (324 bp), C-terminal His6 tag kept, pET30a, E. coli BL21(DE3); Ni-NTA and Superdex 200

Substrate: O=S(O)(O)=S
Experiment: purified protein
Format: biochemical, Escherichia coli
Conditions: 100 mM GSH fixed, 0.4 mM lead acetate, 100 mM HEPES pH 7.4, 37 °C

Row | Protein | Km | kcat | kcat/Km
1 | B1 | 7.8 ± 1.6 mM | 0.04 s⁻¹ | 4.8 M⁻¹ s⁻¹
2 | B2 | 33.6 ± 7.0 mM | 0.02 s⁻¹ | 0.7 M⁻¹ s⁻¹
